Test results reported in patent US9012398B2.

Molecular target: human GLP-1 receptor (human) (UniProt P43220)

| Substance | GLP1cAMPma (3693) [EC50 (nM)] Mean Value [nM] |
| --- | --- |
| N-ε^20-(2-(2-(2-(2-(2-(2-(2-(2-(2- (Octadecanoylamino)ethoxy)ethoxy)acetylamino)ethoxy)ethoxy)acetyl- amino)ethoxy)ethoxy)acety))[Arg^12,27,28,Leu^14,Lys^20 Exendin-4(1- 39)amide (from UniProt P26349) (peptide) | 0.007 |
| N-ε^27-2-(2-2-(2-(2-(2-(4-(Octadecanoylamino)-4(S)- carboxybutyrylamino)ethoxy)ethoxy)acetylamino)ethoxy)ethoxy)acetyl [Arg^12,Leu^14,Lys^27,Leu^28]Exendin-4-(1-39)-amide (from UniProt P26349) (peptide) | 0.14 |
| N-ε^28-[2-(2-[2-(2-[2-(2-[4-hexadecanoylamino-4(S)- carboxybutyrylamino]ethoxy)ethoxy]acetylamino)ethoxy]ethoxy)acetyl] [alfa-Me-Phe^6,Arg^12,Val^27,Lys^28,Ala^29]Exendin-4-(1-39)-amide (from UniProt P26349) (peptide) | 0.052 |
| N-ε^27-(2-(2-(2-(2-(2-(2-(17- carboxyheptadecanoylamino)ethoxy)ethoxy)acetylamino)ethoxy) ethoxy)acetyl)[Leu^14,Arg^12,Lys^27]Exendin-4(1-39)amide (from UniProt P26349) (peptide) | 0.35 |
| N-ε^27-(2-(2-(2-(2-(2-(2-(17-carboxyheptadecanoylamino-4(S)- carboxybutyrylamino])ethoxy)ethoxy)acetylamino)ethoxy)ethoxy) acetyl)[Leu^14,Arg^12,Lys^27]Exendin-4(1-39)amide (from UniProt P26349) (peptide) | 0.52 |
| N-ε^34-(2-(2-(2-(17-carboxyheptadecanoylamino)ethoxy)ethoxy)acetyl) [Leu^14,Arg^12,27,Lys^34]Exendin-4(1-39)amide (from UniProt P26349) (peptide) | 0.44 |
| N-ε^32-(2-(2-(2-(2-(2-(2-(4-(Octadecanoylamino)-4(S)- carboxybutyrylamino))ethoxy)ethoxy)acetylamino)ethoxy) ethoxy)acetyl[Arg^12,Leu^14,Val^27,Arg^28,Lys^32]Exendin-4-(1-39)amide (from UniProt P26349) (peptide) | 0.025 |
| N-ε^34-[2-(2-[2-(2-[2-(2-[4-hexadecanoylamino-4(S)- carboxybutyrylamino]ethoxy)ethoxy]acetylamino)ethoxy]ethoxy)acetyl] [Arg^12,27,Leu^14,Lys^34]Exendin-4(1-39)amide (from UniProt P26349) (peptide) | 0.018 |
| N-ε^14-(2-(2-(2-(2-(2-(2-(17- carboxyheptadecanoylamino)ethoxy)ethoxy)acetylamino)ethoxy) ethoxy)acetyl[Arg^12,Lys^14,Val^27,Arg^28]Exendin-4-(1-39)-amide (from UniProt P26349) (peptide) | 3.65 |
| N-ε^27-(2-(2-(2-(2-(2-(2-(2-(2-(2- (Octadecanoylamino)ethoxy)ethoxy)acetylamino)ethoxy)ethoxy)acetyl- amino)ethoxy)ethoxy)acetyl)[Arg^12,Leu^14,Lys^27,Ala^29]Exendin-4-(1- 39)-amide (from UniProt P26349) (peptide) | 0.08 |
| N-ε^12-[2-(2-[2-(2-[2-(2-[4-(hexadecanoylamino)-4(S)- carboxybutyrylamino]ethoxy)ethoxy]acetylamino)ethoxy]ethoxy)acetyl] [Lys^12,Leu^14,Arg^27,Gln^28]Exendin-4-(1-39)-amide (from UniProt P26349) (peptide) | 0.006 |
| N-ε^12-[2-(2-[2-(2-[2-(2-[4-(17-carboxyheptadecanoylamino)-4(S)- carboxybutyrylamino]ethoxy)ethoxy]acetylamino)ethoxy]ethoxy)acetyl] [Lys^12,Leu^14,Arg^27,Gln^28]Exendin-4-(1-39)-amide (from UniProt P26349) (peptide) | 0.22 |
| N-ε^20-[2-(2-[2-(2-[2-(2-[4-(octadecanoylamino)-4(S)- carboxybutyrylamino]ethoxy)ethoxy]acetylamino)ethoxy]ethoxy)acetyl] [Aib^2,Lys^20,Ala^29,Ser(O-benzyl)^39]Exendin-4-(1-39)-amide (from UniProt P26349) (peptide) | 0.006 |
| N-ε^34-[2-(2-[2-[4-hexadecanoylamino-4(S)- carboxybutyrylamino]ethoxy]ethoxy)acetyl][Arg^12,27,Leu^14,Lys^34] Exendin-4(1-39)amide (from UniProt P26349) (peptide) | 0.012 |
| N-ε^32-(2-(2-(2-(2-(2-(2-(2-(2-(2- (Octadecanoylamino)ethoxy)ethoxy)acetylamino)ethoxy)ethoxy)acetyl- amino)ethoxy)ethoxy)acetyl))[Arg^12,Leu^14,Val^27,Arg^28,Lys^32]Exendin-4 (1-39)amide (from UniProt P26349) (peptide) | 0.027 |
| N--ε^20-{2-(2-(2-(2-[2-(2-(4-(hexadecanoylamino)-4- carboxybutyrylamino)ethoxy)ethoxy]acetyl)ethoxy)ethoxy)acetyl)}- [Leu^14,Gln^27,Gln^28,Lys^20]Exendin-4-amide (from UniProt P26349) (peptide) | 0.093 |
| N-ε^14-(2-(2-2-(2-(2-(4-(hexadecanoylamino)-4-(S)- carboxybytyrylamino)ethoxy)ethoxy)acetylamino)ethoxy)ethoxy)acetyl [Arg^12,Lys^l4,Val^27,Arg^28]Exendin-4-(1-39)-amide (from UniProt P26349) (peptide) | 0.037 |
| N-ε^14-(2-(2-(2-(2-(2-(2-(4-(Octadecanoylamino)-4(S)- carboxybutyrylamino)ethoxy)ethoxy)acetylamino)ethoxy)ethoxy)acetyl [Arg^12,Lys^14,Val^27,Arg^28]Exendin-4-(1-39)-amide (from UniProt P26349) (peptide) | 0.059 |
| N-ε^28-{2-(2-(2-(2-[2-(2-(4-(hexadecanoylamino)-4- carboxybutyrylamino)ethoxy)ethoxy]acetylamino)ethoxy)ethoxy) acetyl)}-[Leu^14,Lys^20]Exendin-4-amide (from UniProt P26349) (peptide) | 0.011 |
| N-ε^20-[2-(2-[2-(2-[2-(2-[4-Octadecanoylamino-4(S)- carboxybutyrylamino]ethoxy)ethoxy]acetylamino)ethoxy]ethoxy)acetyl] [Arg^12,27,Gln^28,Leu^14,Lys^20 Exendin-4(1-39)amide (from UniProt P26349) (peptide) | 0.044 |
| N-ε^20-{2-(2-(2-(2-[2-(2-(4-(hexadecanoylamino)-4- carboxybutyrylamino)ethoxy)ethoxy]acetylamino)ethoxy)ethoxy) acetyl)}-[Gln^28,Lys^20]Exendin-4-amide (from UniProt P26349) (peptide) | 0.033 |
| N-ε^12-(2-(2-(2-(2-(2-(2-(2-(2-(2-Octadecanoylamino) ethoxy)ethoxy)acetylamino)ethoxy)ethoxy)acetylamino)ethoxy)ethoxy)acetyl)) [Lys^12,Leu^14,Arg^27,Gln^28]Exendin-4-(1-39)-amide (from UniProt P26349) (peptide) | 0.0035 |
| N-ε^20-(2-(2-(2-(2-(2-(2-(17- carboxyheptadecanoylamino)ethoxy)ethoxy)acetylamino)ethoxy) ethoxy)acetyl)[Arg12,Leu^14,Arg^27,Gln^28,Lys^20]Exendin-4 (1-39)amide (from UniProt P26349) (peptide) | 5.45 |
| N-ε^14-(2-(2-(2-(2-(2-(2-(2-(2-(2- (Octadecanoylamino)ethoxy)ethoxy)acetylamino)ethoxy)ethoxy)acetyl- amino)ethoxy)ethoxy)acetyl)[Arg^12,Lys^14,Val^27,Arg^28]Exendin-4-(1-39)- amide (from UniProt P26349) (peptide) | 0.088 |
| N-ε^27-2-(2-(2-(2-(2-(2-(4-(Octadecanoylamino)-4(S)- carboxybutyrylamino)ethoxy)ethoxy)acetylamino)ethoxy) ethoxy)acetyl[Arg^12,Leu^14,Lys^27,Ala^29]Exendin-4-(1-39)-amide (from UniProt P26349) (peptide) | 0.24 |
